Test results from the supplement of paper PMC10567573.

B1: TRIM39 (parent)
chain: ERDFPCPVCRKTSRYRSLRPNRQL

Variants of: B1
Assay: protein stability index of a GFP-peptide fusion (GPS, HEK-293T) (PSI 1-6); higher = more stable
Conditions: c terminus: a fixed tail appended
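Note: lentivirally expressed fusions sorted by FACS into six bins by GFP to DsRed ratio, PSI derived from sequencing read proportions per bin multiplied by bin number.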

Variant	protein stability index
ERDFPCPVCRKTSRYRSNRPNRQL [L18N]	2.41
ERDFPCPVCRKTSRYRSYRPNRQL [L18Y]	1.96
ERDFPCPVCRKTSRYRSMRPNRQL [L18M]	1.82
ERDFPCPVCRKTSRYRSRRPNRQL [L18R]	2.87
ERDFPCPVCRKTSRYRSDRPNRQL [L18D]	2.71
ERDFVCPVCRKTSRYRSLRPNRQL [P5V]	2.29
ERDFHCPVCRKTSRYRSLRPNRQL [P5H]	3.7
ERDFKCPVCRKTSRYRSLRPNRQL [P5K]	2.72
ERDFPCPVCRKVSRYRSLRPNRQL [T12V]	2.02
ERDFPCPVCRKHSRYRSLRPNRQL [T12H]	1.55
ERDFPCPVCRKCSRYRSLRPNRQL [T12C]	2
ERDFPCPVCRKPSRYRSLRPNRQL [T12P]	1.55
ERDFPCPVCRKISRYRSLRPNRQL [T12I]	1.71
ERDFPCPVCRKMSRYRSLRPNRQL [T12M]	2.36
ERDFPCPVCRKWSRYRSLRPNRQL [T12W]	2.44
ERDFPCPVCRKFSRYRSLRPNRQL [T12F]	2.88
ERDFPCPVCRKQSRYRSLRPNRQL [T12Q]	1.6
ERDFPCPVCRKTWRYRSLRPNRQL [S13W]	2.39
ERDFPCPVCRKTMRYRSLRPNRQL [S13M]	2.61
ERDFPCPVCRKTLRYRSLRPNRQL [S13L]	2.4
ERDFPCPVCRKTGRYRSLRPNRQL [S13G]	2.52
ERDFPCPVCRKTSRYRSLRPNRDL [Q23D]	2.34
ERDFPCPVCRKTSRYRSLRPNRYL [Q23Y]	1.66
ERDFPCPVCRKTSRYRSLRPNRIL [Q23I]	1.68

Variant	protein stability index
ERDFPCPVCRKTSRYRSLRPNRKL [Q23K]	1.92
ERDFPCPVCRKTSRYRSLRPNRQW [L24W]	1.36
ERDFPCPVCRKTSRYRSLRPNRQH [L24H]	2.82
ERDFPCPVCRKTSRYRSLRPNRQC [L24C]	3.12
ERDFPCPVCRKTSRYRSLRPNRQI [L24I]	1.85
ERDFPCPVCRKTSRYRSLRPNAQL [R22A]	3.44
ERDFPCPVCRKTSRYRSLRPNQQL [R22Q]	1.95
ERDFPCPVCRKTSRYRSLRPPRQL [N21P]	2.12
ERDFPCPVCRKTSRYRSLRPIRQL [N21I]	1.85
ERDFPCPVCRKTSRYRSLRPVRQL [N21V]	1.9
ERDFPCPVCRKTSRYRSLRPFRQL [N21F]	2.6
ERDFPCPVCRKTSRYRSLRPHRQL [N21H]	1.77
ERDFPCPVCRKTSRYRSLRPRRQL [N21R]	2.96
ERDFPCPVCRKTSRYRSLRPQRQL [N21Q]	1.62
ERDFPCPVCRKTSRYRSLRPYRQL [N21Y]	2.52
ERDLPCPVCRKTSRYRSLRPNRQL [F4L]	2.1
ERDKPCPVCRKTSRYRSLRPNRQL [F4K]	2.86
ERDRPCPVCRKTSRYRSLRPNRQL [F4R]	2.09
ERDHPCPVCRKTSRYRSLRPNRQL [F4H]	3.14
ERDYPCPVCRKTSRYRSLRPNRQL [F4Y]	2.84
ERDMPCPVCRKTSRYRSLRPNRQL [F4M]	2.48
ERDEPCPVCRKTSRYRSLRPNRQL [F4E]	2.02
ERDCPCPVCRKTSRYRSLRPNRQL [F4C]	2.12
ERDFPCPECRKTSRYRSLRPNRQL [V8E]	1.72

Variant	protein stability index
ERDFPCPGCRKTSRYRSLRPNRQL [V8G]	2.75
ERDFPCPRCRKTSRYRSLRPNRQL [V8R]	3.23
ERDFPCPLCRKTSRYRSLRPNRQL [V8L]	1.96
ERDFPCPVCRKTSRYRSLKPNRQL [R19K]	1.82
ERDFPCPVCRKTSRYRSLVPNRQL [R19V]	1.85
ERDFPCPVCRKTSRYRSLHPNRQL [R19H]	2.08
ERDFPCPVCRKTSRYRSLWPNRQL [R19W]	2.1
ERDFPCPVCRKTSRYRSLQPNRQL [R19Q]	1.91
ERDFPCPVCRKTSRYRSLMPNRQL [R19M]	1.29
ERDFPCPVCRKTSRYRSLDPNRQL [R19D]	1.54
ERDFPCPVCRKTSRYRSLEPNRQL [R19E]	1.59
ERDFPCPVCRKTSRYRSLSPNRQL [R19S]	2.58
ERDFPCPVCRKTSRYRSLYPNRQL [R19Y]	2.12
ERDFPCPVCRKTSRYRSLNPNRQL [R19N]	1.78
ERDFPCPVQRKTSRYRSLRPNRQL [C9Q]	3.81
ERDFPCPVFRKTSRYRSLRPNRQL [C9F]	2.45
ERDFPCPVPRKTSRYRSLRPNRQL [C9P]	2.92
ERDFPCPVTRKTSRYRSLRPNRQL [C9T]	3.77
ERDFPCPVSRKTSRYRSLRPNRQL [C9S]	3.77
ERDFPCPVHRKTSRYRSLRPNRQL [C9H]	2.56
ERDFPCPVYRKTSRYRSLRPNRQL [C9Y]	3.62
ERDFPCPVNRKTSRYRSLRPNRQL [C9N]	2.78
HRDFPCPVCRKTSRYRSLRPNRQL [E1H]	2.03
SRDFPCPVCRKTSRYRSLRPNRQL [E1S]	2.25

Variant	protein stability index
IRDFPCPVCRKTSRYRSLRPNRQL [E1I]	2.19
MRDFPCPVCRKTSRYRSLRPNRQL [E1M]	2.16
ARDFPCPVCRKTSRYRSLRPNRQL [E1A]	2.16
CRDFPCPVCRKTSRYRSLRPNRQL [E1C]	2.2
TRDFPCPVCRKTSRYRSLRPNRQL [E1T]	2.71
FRDFPCPVCRKTSRYRSLRPNRQL [E1F]	2.14
GRDFPCPVCRKTSRYRSLRPNRQL [E1G]	1.83
WRDFPCPVCRKTSRYRSLRPNRQL [E1W]	2.4
ERDFPCPVCRPTSRYRSLRPNRQL [K11P]	2.54
ERDFPCPVCRRTSRYRSLRPNRQL [K11R]	1.85
ERDFPCPVCRHTSRYRSLRPNRQL [K11H]	3.77
ERDFPCPVCRVTSRYRSLRPNRQL [K11V]	1.63
ERDFPCPVCRYTSRYRSLRPNRQL [K11Y]	1.8
ERDFPCPVCRATSRYRSLRPNRQL [K11A]	2.45
ERNFPCPVCRKTSRYRSLRPNRQL [D3N]	2.5
ERRFPCPVCRKTSRYRSLRPNRQL [D3R]	1.99
ERFFPCPVCRKTSRYRSLRPNRQL [D3F]	2.93
ERPFPCPVCRKTSRYRSLRPNRQL [D3P]	2.06
ERAFPCPVCRKTSRYRSLRPNRQL [D3A]	2.2
ERLFPCPVCRKTSRYRSLRPNRQL [D3L]	1.96
ERDFPCPVCRKTSRYRDLRPNRQL [S17D]	1.85
ERDFPCPVCRKTSRYRHLRPNRQL [S17H]	1.89
